Experiments:
[1] = molecular target: SARS-CoV-2 S B.1.1.7 on CHO cells (SARS-CoV-2) (UniProt P0DTC2)
[2] = molecular target: SARS-CoV-2 S B.1.351 on CHO cells (SARS-CoV-2) (UniProt P0DTC2)

## LY-CoV1404 (bebtelovimab), full-length human IgG1 mAb (antibody)
[1]
  VSV pseudovirus neutralisation IC50: 1 ng/mL
  VSV pseudovirus neutralisation IC90: 9 ng/mL
  lentiviral pseudovirus neutralisation IC50: 4 ng/mL
  lentiviral pseudovirus neutralisation IC90: 11 ng/mL
[2]
  VSV pseudovirus neutralisation IC50: 2 ng/mL
  VSV pseudovirus neutralisation IC90: 9 ng/mL
  lentiviral pseudovirus neutralisation IC50: 3 ng/mL
  lentiviral pseudovirus neutralisation IC90: 9 ng/mL
